According to the RNAGym collection of RNA variant scans (doi:10.7554/elife.80360):

B1: HDV Ribozyme (parent)
chain: GGCCGGCAUGGUCCCAGCCUCCUCGCUGGCGCCGGCUGGGCAACAUUCCGAGGGGACCGUCCCCUCGGUAAUGGCGAAUGGGACCCA

Variants of: B1
Experiment: self-cleavage, relative activity (ratio to wild type); higher = more cleavage; co-transcriptional

Variant	self-cleavage
GGCCGGCAUGGUCCCAGCCUCCUCGCUGGCGCCGGCUGGGCAACAUUCCGAGGGGACCGUCGCCUCGGUAAUGGCGCAUGGGACCCA [C62G A77C]	0.353
GGCCGGCAUGGUCCCAGCCUCCUCGCUGGCGCCGGCUGGGCAACAUUCCGAGGGGACCGUCGCCUCGGUAAUGGCGGAUGGGACCCA [C62G A77G]	0.745
GGCCGGCAUGGUCCCAGCCUCCUCGCUGGCGCCGGCUGGGCAACAUUCCGAGGGGACCGUCUCCUCGGUUAUGGCGAAUGGGACCCA [C62U A70U]	0.831
GGCCGGCAUGGUCCCAGCCUCCUCGCUGGCGCCGGCUGGGCAACAUUCCGAGGGGACCGUCUCCUCGGUCAUGGCGAAUGGGACCCA [C62U A70C]	0.734
GGCCGGCAUGGUCCCAGCCUCCUCGCUGGCGCCGGCUGGGCAACAUUCCGAGGGGACCGUUCCCUCGGUAAUGGCGAACGGGACCCA [C61U U79C]	0.487
GGCCGGCAUGGUCCCAGCCUCCUCGCUGGCGCCGGCUGGGCAACAUUCCGAGGGGACCGUCGCCUUGGUAAUGGCGAAUGGGACCCA [C62G C66U]	0.554
GGCCGGCAUGGUCCCAGCCUCCUCGCUGGCGCCGGCUGGGCAACAUUCCGAGGGGACCGUCGCCUCGGUAAUGGCGAAUGGGACCCU [C62G A87U]	0.716
GGCCGGCAUGGUCCCAGCCUCCUCGCUGGCGCCGGCUGGGCAACAUUCCGAGGGGACCGUCGCCUCGGUAAUGGCGAAUGGGACCCC [C62G A87C]	0.661
GGCCGGCAUGGUCCCAGCCUCCUCGCUGGCGCCGGCUGGGCAACAUUCCGAGGGGACCGUCGCCUCGGUAAUGGCGAAUGGGACACA [C62G C85A]	0.717
GGCCGGCAUGGUCCCAGCCUCCUCGCUGGCGCCGGCUGGGCAACAUUCCGAGGGGACCGUCGCCUCGGUAAUGGCGAAUGGGACUCA [C62G C85U]	0.902
GGCCGGCAUGGUCCCAGCCUCCUCGCUGGCGCCGGCUGGGCAACAUUCCGAGGGGACCGUCACGUCGGUAAUGGCGAAUGGGACCCA [C62A C64G]	0.142
GGCCGGCAUGGUCCCAGCCUCCUCGCUGGCGCCGGCUGGGCAACAUUCCGAGGGGACCGUCACAUCGGUAAUGGCGAAUGGGACCCA [C62A C64A]	0.332
GGCCGGCAUGGUCCCAGCCUCCUCGCUGGCGCCGGCUGGGCAACAUUCCGAGGGGACCGUCACCUCGGUAAUGGCGAAUUGGACCCA [C62A G80U]	0.16
GGCCGGCAUGGUCCCAGCCUCCUCGCUGGCGCCGGCUGGGCAACAUUCCGAGGGGACCGUUCCCUCGGUAAUGGCGAAUGGAACCCA [C61U G82A]	0.325
GGCCGGCAUGGUCCCAGCCUCCUCGCUGGCGCCGGCUGGGCAACAUUCCGAGGGGACCGUUCCUUCGGUAAUGGCGAAUGGGACCCA [C61U C64U]	1.2
GGCCGGCAUGGUCCCAGCCUCCUCGCUGGCGCCGGCUGGGCAACAUUCCGAGGGGACCGUCGCCCCGGUAAUGGCGAAUGGGACCCA [C62G U65C]	0.427
GGCCGGCAUGGUCCCAGCCUCCUCGCUGGCGCCGGCUGGGCAACAUUCCGAGGGGACCGUUCCCUCGGGAAUGGCGAAUGGGACCCA [C61U U69G]	0.864
GGCCGGCAUGGUCCCAGCCUCCUCGCUGGCGCCGGCUGGGCAACAUUCCGAGGGGACCGUCACCUCGGUAAUGGCGAAUGGGAUCCA [C62A C84U]	0.618
GGCCGGCAUGGUCCCAGCCUCCUCGCUGGCGCCGGCUGGGCAACAUUCCGAGGGGACCGUCGCCUCGGUAAUAGCGAAUGGGACCCA [C62G G73A]	0.534
GGCCGGCAUGGUCCCAGCCUCCUCGCUGGCGCCGGCUGGGCAACAUUCCGAGGGGACCGUCGCCUCGGUAAUCGCGAAUGGGACCCA [C62G G73C]	0.446
GGCCGGCAUGGUCCCAGCCUCCUCGCUGGCGCCGGCUGGGCAACAUUCCGAGGGGACCGUUCCCUCGGUAAUAGCGAAUGGGACCCA [C61U G73A]	0.547
GGCCGGCAUGGUCCCAGCCUCCUCGCUGGCGCCGGCUGGGCAACAUUCCGAGGGGACCGUCACCUCGCUAAUGGCGAAUGGGACCCA [C62A G68C]	0.883

Variant	self-cleavage
GGCCGGCAUGGUCCCAGCCUCCUCGCUGGCGCCGGCUGGGCAACAUUCCGAGGGGACCGUCGCCUCGGUAAUGGCGAAUGCGACCCA [C62G G81C]	0.208
GGCCGGCAUGGUCCCAGCCUCCUCGCUGGCGCCGGCUGGGCAACAUUCCGAGGGGACCGUCACCUCGGUACUGGCGAAUGGGACCCA [C62A A71C]	0.85
GGCCGGCAUGGUCCCAGCCUCCUCGCUGGCGCCGGCUGGGCAACAUUCCGAGGGGACCGUCACCUCGGUAGUGGCGAAUGGGACCCA [C62A A71G]	1.03
GGCCGGCAUGGUCCCAGCCUCCUCGCUGGCGCCGGCUGGGCAACAUUCCGAGGGGACCGUCGCCUCGUUAAUGGCGAAUGGGACCCA [C62G G68U]	0.425
GGCCGGCAUGGUCCCAGCCUCCUCGCUGGCGCCGGCUGGGCAACAUUCCGAGGGGACCGUCGCCUCGAUAAUGGCGAAUGGGACCCA [C62G G68A]	0.199
GGCCGGCAUGGUCCCAGCCUCCUCGCUGGCGCCGGCUGGGCAACAUUCCGAGGGGACCGUUCCCUCGGUAAUGGCGAAUGGGCCCCA [C61U A83C]	0.378
GGCCGGCAUGGUCCCAGCCUCCUCGCUGGCGCCGGCUGGGCAACAUUCCGAGGGGACCGUCGCCUCGGUAAUGGUGAAUGGGACCCA [C62G C75U]	0.189
GGCCGGCAUGGUCCCAGCCUCCUCGCUGGCGCCGGCUGGGCAACAUUCCGAGGGGACCGUUCCCUCGGUAAUGGCGAAUGGGACCAA [C61U C86A]	0.812
GGCCGGCAUGGUCCCAGCCUCCUCGCUGGCGCCGGCUGGGCAACAUUCCGAGGGGACCGUCGCCUCAGUAAUGGCGAAUGGGACCCA [C62G G67A]	0.095
GGCCGGCAUGGUCCCAGCCUCCUCGCUGGCGCCGGCUGGGCAACAUUCCGAGGGGACCGUCGCCUCGGUAAUGGCGAAUGGGAACCA [C62G C84A]	0.712
GGCCGGCAUGGUCCCAGCCUCCUCGCUGGCGCCGGCUGGGCAACAUUCCGAGGGGACCGUCGCCUCGGUAAUGGCGAAUGGGAUCCA [C62G C84U]	0.846
GGCCGGCAUGGUCCCAGCCUCCUCGCUGGCGCCGGCUGGGCAACAUUCCGAGGGGACCGUCACCUCGGUAAUGGCCAAUGGGACCCA [C62A G76C]	1.02
GGCCGGCAUGGUCCCAGCCUCCUCGCUGGCGCCGGCUGGGCAACAUUCCGAGGGGACCGUUCCCUCGGUAAGGGCGAAUGGGACCCA [C61U U72G]	0.567
GGCCGGCAUGGUCCCAGCCUCCUCGCUGGCGCCGGCUGGGCAACAUUCCGAGGGGACCGUUCCCUCGGUAAUGGCGAAUGGGAACCA [C61U C84A]	0.992
GGCCGGCAUGGUCCCAGCCUCCUCGCUGGCGCCGGCUGGGCAACAUUCCGAGGGGACCGUUCCCUCGGUAAUGGCGAAUGGGAGCCA [C61U C84G]	0.589
GGCCGGCAUGGUCCCAGCCUCCUCGCUGGCGCCGGCUGGGCAACAUUCCGAGGGGACCGUCUCCUCGGUAUUGGCGAAUGGGACCCA [C62U A71U]	1.05
GGCCGGCAUGGUCCCAGCCUCCUCGCUGGCGCCGGCUGGGCAACAUUCCGAGGGGACCGUCGCCUCGGUAAUGGCGAAUGGGCCCCA [C62G A83C]	0.253
GGCCGGCAUGGUCCCAGCCUCCUCGCUGGCGCCGGCUGGGCAACAUUCCGAGGGGACCGUUCCCCCGGUAAUGGCGAAUGGGACCCA [C61U U65C]	0.914
GGCCGGCAUGGUCCCAGCCUCCUCGCUGGCGCCGGCUGGGCAACAUUCCGAGGGGACCGUUCCCUCUGUAAUGGCGAAUGGGACCCA [C61U G67U]	0.842
GGCCGGCAUGGUCCCAGCCUCCUCGCUGGCGCCGGCUGGGCAACAUUCCGAGGGGACCGUCAGCUCGGUAAUGGCGAAUGGGACCCA [C62A C63G]	0.7
GGCCGGCAUGGUCCCAGCCUCCUCGCUGGCGCCGGCUGGGCAACAUUCCGAGGGGACCGUCGCCUCGGUAAUGGCGAAUGGUACCCA [C62G G82U]	0.0923
GGCCGGCAUGGUCCCAGCCUCCUCGCUGGCGCCGGCUGGGCAACAUUCCGAGGGGACCGUCACCUCGGUAAUGGGGAAUGGGACCCA [C62A C75G]	0.0519

Variant	self-cleavage
GGCCGGCAUGGUCCCAGCCUCCUCGCUGGCGCCGGCUGGGCAACAUUCCGAGGGGACCGUCACCUCGGUAAUGUCGAAUGGGACCCA [C62A G74U]	0.367
GGCCGGCAUGGUCCCAGCCUCCUCGCUGGCGCCGGCUGGGCAACAUUCCGAGGGGACCGUCACCUCGGUAAUGACGAAUGGGACCCA [C62A G74A]	0.619
GGCCGGCAUGGUCCCAGCCUCCUCGCUGGCGCCGGCUGGGCAACAUUCCGAGGGGACCGUUCCCUCGGUAAUGGCGCAUGGGACCCA [C61U A77C]	0.65
GGCCGGCAUGGUCCCAGCCUCCUCGCUGGCGCCGGCUGGGCAACAUUCCGAGGGGACCGUUCCCUCGGUAAUGGCGAAUGGGACCCC [C61U A87C]	0.784
GGCCGGCAUGGUCCCAGCCUCCUCGCUGGCGCCGGCUGGGCAACAUUCCGAGGGGACCGUUCCCUCGGUAAUGGCGAAUGGGACCCG [C61U A87G]	0.933
GGCCGGCAUGGUCCCAGCCUCCUCGCUGGCGCCGGCUGGGCAACAUUCCGAGGGGACCGUCACCUCGGUAAUGGCGAAUGGGACCUA [C62A C86U]	1.03
GGCCGGCAUGGUCCCAGCCUCCUCGCUGGCGCCGGCUGGGCAACAUUCCGAGGGGACCGUCACCUCGGUAAUGGCGAAUGGGACCGA [C62A C86G]	0.975
GGCCGGCAUGGUCCCAGCCUCCUCGCUGGCGCCGGCUGGGCAACAUUCCGAGGGGACCGUCGCCUCGGUAAUGGCAAAUGGGACCCA [C62G G76A]	1.02
GGCCGGCAUGGUCCCAGCCUCCUCGCUGGCGCCGGCUGGGCAACAUUCCGAGGGGACCGUCGCCUCGGUAGUGGCGAAUGGGACCCA [C62G A71G]	0.346
GGCCGGCAUGGUCCCAGCCUCCUCGCUGGCGCCGGCUGGGCAACAUUCCGAGGGGACCGUUCUCUCGGUAAUGGCGAAUGGGACCCA [C61U C63U]	0.958
GGCCGGCAUGGUCCCAGCCUCCUCGCUGGCGCCGGCUGGGCAACAUUCCGAGGGGACCGUCGCCUCGGUUAUGGCGAAUGGGACCCA [C62G A70U]	0.665
GGCCGGCAUGGUCCCAGCCUCCUCGCUGGCGCCGGCUGGGCAACAUUCCGAGGGGACCGUCGCCUCGGUAAUGGCGAAUGGGACCUA [C62G C86U]	0.923
GGCCGGCAUGGUCCCAGCCUCCUCGCUGGCGCCGGCUGGGCAACAUUCCGAGGGGACCGUCGCCUCGGUAAUGGCGAAUGGGACCAA [C62G C86A]	0.752
GGCCGGCAUGGUCCCAGCCUCCUCGCUGGCGCCGGCUGGGCAACAUUCCGAGGGGACCGUUCCCUUGGUAAUGGCGAAUGGGACCCA [C61U C66U]	0.736
GGCCGGCAUGGUCCCAGCCUCCUCGCUGGCGCCGGCUGGGCAACAUUCCGAGGGGACCGUUCCCUCGGUAAUGGCGAGUGGGACCCA [C61U A78G]	0.87
GGCCGGCAUGGUCCCAGCCUCCUCGCUGGCGCCGGCUGGGCAACAUUCCGAGGGGACCGUCACCUCGGUAAUGGCGAAGGGGACCCA [C62A U79G]	0.862
GGCCGGCAUGGUCCCAGCCUCCUCGCUGGCGCCGGCUGGGCAACAUUCCGAGGGGACCGUCACCUCGGUAAUGGCGAAUGCGACCCA [C62A G81C]	0.138
GGCCGGCAUGGUCCCAGCCUCCUCGCUGGCGCCGGCUGGGCAACAUUCCGAGGGGACCGUCACCUCGGUAAUGGCGAAUGGGACUCA [C62A C85U]	1.05
GGCCGGCAUGGUCCCAGCCUCCUCGCUGGCGCCGGCUGGGCAACAUUCCGAGGGGACCGUCACCUCGGUAAUGGCGAAUGGGCCCCA [C62A A83C]	0.315
GGCCGGCAUGGUCCCAGCCUCCUCGCUGGCGCCGGCUGGGCAACAUUCCGAGGGGACCGUUCCCUCGGUAAUGGCGAAUGAGACCCA [C61U G81A]	0.44
